18 molecules from patent US7070973B2, “Butyrylcholinesterase variants and methods of use” (priority 2000, dated 2006) can be followed below.

The labels stand for the following.
B1: S287G (protein)
chain: EDDIIIATKNGKVRGMNLTVFGGTVTAFLGIPYAQPPLGRLRFKKPQSLTKWSDIWNATKYANSCCQNIDQSFPGFHGSEMWNPNTDLSEDCLYLNVWIPAPKPKNATVLIWIYGGGFQTGTSSLHVYDGKFLARVERVIVVSMNYRVGALGFLALPGNPEAPGNMGLFDQQLALQWVQKNIAAFGGNPKSVTLFGESAGAASVSLHLLSPGSHSLFTRAILQSGSFNAPWAVTSLYEARNRTLNLAKLTGCSRENETEIIKCLRNKDPQEILLNEAFVVPYGTPLGVNFGPTVDGDFLTDMPDILLELGQFKKTQILVGVNKDEGTAFLVYGAPGFSKDNNSIITRKEFQEGLKIFFPGVSEFGKESILFHYTDWVDDQRPENYREALGDVVGDYNFICPALEFTKKFSEWGNNAFFYYFEHRSSKLPWPEWMGVMHGYEIEFVFGLPLERRDNYTKAEEILSRSIVKRWANFAKYGNPNETQNNSTSWPVFKSTEQKYLTLNTESTRIMTKLRAQQCRFWTSFFPKVLEMTGNIDEAEWEWKAGFHRWNNYMMDWKNQFNDYTSKKESCVGL
modifications: Human Butyrylcholinesterase variant
B2: P285Q (protein)
chain: B1 chain with P285Q, G287S
modifications: Human Butyrylcholinesterase variant
B3: A328W (protein)
chain: MDSKVTIICIRFLFWFLLLCMLIGKSHTEDDIIIATKNGKVRGMNLTVFGGTVTAFLGIPYAQPPLGRLRFKKPQSLTKWSDIWNATKYANSCCQNIDQSFPGFHGSEMWNPNTDLSEDCLYLNVWIPAPKPKNATVLIWIYGGGFQTGTSSLHVYDGKFLARVERVIVVSMNYRVGALGFLALPGNPEAPGNMGLFDQQLALQWVQKNIAAFGGNPKSVTLFGESAGAASVSLHLLSPGSHSLFTRAILQSGSFNAPWAVTSLYEARNRTLNLAKLTGCSRENETEIIKCLRNKDPQEILLNEAFVVPYGTPLSVNFGPTVDGDFLTDMPDILLELGQFKKTQILVGVNKDEGTWFLVYGAPGFSKDNNSIITRKEFQEGLKIFFPGVSEFGKESILFHYTDWVDDQRPENYREALGDVVGDYNFICPALEFTKKFSEWGNNAFFYYFEHRSSKLPWPEWMGVMHGYEIEFVFGLPLERRDNYTKAEEILSRSIVKRWANFAKYGNPNETQNNSTSWPVFKSTEQKYLTLNTESTRIMTKLRAQQCRFWTSFFPKVLEMTGNIDEAEWEWKAGFHRWNNYMMDWKNQFNDYTSKKESCVGL
modifications: Human Butyrylcholinesterase variant
B4: T120F (protein, UniProt P06276 29-602, looked up, variant T120F)
Cholinesterase: B1 chain with T120F, G287S
B5: V288F (protein, UniProt P06276 29-602, looked up, variant V288F)
Cholinesterase: B1 chain with G287S, V288F
B6: A328I (protein, UniProt P06276 29-602, looked up, variant A328I)
Cholinesterase: B1 chain with G287S, A328I
B7: Y332A (protein, UniProt P06276 29-602, looked up, variant Y332A)
Cholinesterase: B1 chain with G287S, Y332A
B8: Q119Y (protein, UniProt P06276 29-602, looked up, variant Q119Y)
Cholinesterase: B1 chain with Q119Y, G287S
B9: Q119Y/V288F/A328Y (protein, UniProt P06276 29-602, looked up, variant Q119Y V288F A328Y)
Cholinesterase: B1 chain with Q119Y, G287S, V288F, A328Y
B10: A328F (protein, UniProt P06276 29-602, looked up, variant A328F)
Cholinesterase: B1 chain with G287S, A328F
B11: A328H (protein, UniProt P06276 29-602, looked up, variant A328H)
Cholinesterase: B1 chain with G287S, A328H
B12: A328G (protein, UniProt P06276 29-602, looked up, variant A328G)
Cholinesterase: B1 chain with G287S, A328G
B13: V288W (protein, UniProt P06276 29-602, looked up, variant V288W)
Cholinesterase: B1 chain with G287S, V288W
B14: S224Y (protein, UniProt P06276 29-602, looked up, variant S224Y)
Cholinesterase: B1 chain with S224Y, G287S
B15: G116W (protein, UniProt P06276 29-602, looked up, variant G116W)
Cholinesterase: B1 chain with G116W, G287S
B16: G439L (protein, UniProt P06276 29-602, looked up, variant G439L)
Cholinesterase: B1 chain with G287S, G439L
B17: L286W (protein, UniProt P06276 29-602, looked up, variant L286W)
Cholinesterase: B1 chain with L286W, G287S
B18: L286H (protein, UniProt P06276 29-602, looked up, variant L286H)
Cholinesterase: B1 chain with L286H, G287S

As a reminder, the Km is the substrate concentration at which the rate is half of its maximum.

Where a chain is given by its changes, count along the chain named. In names and notes the source's numbering stands.

The nature of the first data set: Microtiter [3H]-cocaine isotope tracer hydrolysis assay with immobilized butyrylcholinesterase variants. The data set is classed as biochemical. The following applies: region 5 library variants, Examples II through VI. The source says: At the conclusion of the isotope tracer assay, an aliquot of the reaction mix is acidified in order to take advantage of the solubility difference between the product and the substrate at pH 3.0.
The supernatants isolated from each of the butyrylcholinesterase variant library clones contains variable butyrylcholinesterase enzyme concentrations.
At least three approaches are used to either increase the assay sensitivity or the assay signal.
Consider B1, for which the “increase in cocaine hydrolysis activity compared to human butyrylcholinesterase” value was “four”. Regarding B2, the “increase in cocaine hydrolysis activity compared to human butyrylcholinesterase” value is “four and approximately four”.

Staying with this data set, now noted: region five library, hydrolysis of [3H]-cocaine.
Turning to B1, the “enhanced cocaine hydrolase activity (library screen)” value is listed as “enhanced cocaine hydrolase activity”. In the case of B2, the “enhanced cocaine hydrolase activity (library screen)” value is on record as “enhanced cocaine hydrolase activity”.

Another data set in a line: Spectrophotometric (240 nm) cocaine binding and hydrolysis assay with purified butyrylcholinesterase variants. The format is biochemical. The following applies: (−)-cocaine, 0.1M potassium phosphate pH 7.0 at 30° C. Here is the method: […]. Pharmacol. 41:1249–1254 (1991). Km values were determined in 0.1M potassium phosphate pH 7.0 at 30° C. for (−)-cocaine. Vmax values and Km values were calculated using Sigma Plot for Macintosh (Jandel Scientific, San Rafael, Calif.).
Once Vmax values and Km values were calculated, the number of active sites in each butyrylcholinesterase preparation was determined. The titration of active sites was performed with chlorpyrifos oxon (MET-674B, Chem Service, West Chester, Pa.), an inhibitor of butyrylcholinesterase. One molecule of chlorpyrifos oxon binds and inhibits one molecule of butyrylcholinesterase, which allows for calculation of the number of active sites. Based on the number of active sites, the kcat value for each variant was calculated (Table 3). […].
Turning to B3, the Km is 10 µM. On the same count and under the same terms, under B4 stands 97 µM. Still for that read-out and setting: under B5 stands 17 µM; under B6, 11 µM; under B7, 240 µM. The same measure, in the same setting: under B8 stands 56 µM. With B9, the Km stood at 33 µM. Still for that read-out and setting: to B10 belongs 24 µM.

The same data set, now with this note: (−)-cocaine; active sites titrated with chlorpyrifos oxon.
B3: the “kcat (hydrolysis rate)” value came out at 0.62 s⁻¹. The same measure, in the same setting: to B5 belongs 0.0167 s⁻¹. For the molecule B6, the “kcat (hydrolysis rate)” value amounted to 0.0083 s⁻¹. With B8, the “kcat (hydrolysis rate)” value was found to be 0.0333 s⁻¹. With B9, the “kcat (hydrolysis rate)” value worked out at 0.0383 s⁻¹. The same measure, in the same setting: under B10 stands 0.0967 s⁻¹.

The same data set, now with this note: Table 4.
With B11, the “Cocaine Binding or Cocaine Hydrolysis (result in words)” value (from here on “Cocaine Binding or Cocaine Hydrolysis”) is on record as “Not a cocaine hydrolase”.

As for B4, the “Cocaine Binding or Cocaine Hydrolysis” value is reported as “not a cocaine hydrolase”.

With B12, the “Cocaine Binding or Cocaine Hydrolysis” value was “Not a cocaine hydrolase”. With B13, the “Cocaine Binding or Cocaine Hydrolysis” value is reported as “Not a cocaine hydrolase”. The same measure, in the same setting: under B5 stands “Not a cocaine hydrolase”. Same read-out and setting: under B6 stands “Not a cocaine hydrolase”; under B14, “No activity”. The same measure, in the same setting: under B15 stands “no activity”; under B16, “No cocaine hydrolysis activity”. B17: the “Cocaine Binding or Cocaine Hydrolysis” value was “Not a cocaine hydrolase”.

With B8, the “Cocaine Binding or Cocaine Hydrolysis” value is given as “not a cocaine hydrolase”. On the same count and under the same terms, to B9 belongs “Not a cocaine hydrolase”. Turning to B18, the “Cocaine Binding or Cocaine Hydrolysis” value is recorded as “Not a cocaine hydrolase”. Still for that read-out and setting: to B10 belongs “Not a cocaine hydrolase”.
